Laboratory results: the array DNA melting data of Ke et al.

assay: melting temperature; melt of duplexes; conditions: sodium 0.0675 M; strand 1 µM

Substance	Tm
CGACGTGCGATATGTGCTG+CAGCACATTCCGCACGTCG (((((((((..((((((((+))))))))..)))))))))	53.8 °C
CGACGTGCGATATGTGCTG+CAGCACATTCTGCACGTCG ((((((((...((((((((+))))))))...))))))))	51.5 °C
CGACGTGCGATATGTGCTG+CAGCACATTGAGCACGTCG ((((((((...((((((((+))))))))...))))))))	57.2 °C
CGACGTGCGATATGTGCTG+CAGCACATTGTGCACGTCG ((((((((...((((((((+))))))))...))))))))	47.6 °C
CGACGTGCGCAATGTGCTG+CAGCACATACGGCACGTCG ((((((((...((((((((+))))))))...))))))))	48.6 °C
CGACGTGCGCAATGTGCTG+CAGCACATCACGCACGTCG (((((((((..((((((((+))))))))..)))))))))	54 °C
CGACGTGCGCAATGTGCTG+CAGCACATCCCGCACGTCG (((((((((..((((((((+))))))))..)))))))))	52.5 °C
CGACGTGCGCAATGTGCTG+CAGCACATCGGGCACGTCG ((((((((.(.((((((((+)))))))).).))))))))	52.7 °C
CGACGTGCGCAATGTGCTG+CAGCACATCTAGCACGTCG ((((((((...((((((((+))))))))...))))))))	51.8 °C
CGACGTGCGCAATGTGCTG+CAGCACATCTCGCACGTCG (((((((((..((((((((+))))))))..)))))))))	52.8 °C
CGACGTGCGCAATGTGCTG+CAGCACATGATGCACGTCG ((((((((...((((((((+))))))))...))))))))	52.5 °C
CGACGTGCGCAATGTGCTG+CAGCACATGCAGCACGTCG ((((((((...((((((((+))))))))...))))))))	57.9 °C
CGACGTGCGCAATGTGCTG+CAGCACATGCCGCACGTCG (((((((((..((((((((+))))))))..)))))))))	56.6 °C
CGACGTGCGCAATGTGCTG+CAGCACATGGCGCACGTCG ((((((((((.((((((((+)))))))).))))))))))	63 °C
CGACGTGCGCAATGTGCTG+CAGCACATGGGGCACGTCG ((((((((.(.((((((((+)))))))).).))))))))	56.5 °C
CGACGTGCGCAATGTGCTG+CAGCACATGGTGCACGTCG ((((((((.(.((((((((+)))))))).).))))))))	54.3 °C
CGACGTGCGCAATGTGCTG+CAGCACATGTTGCACGTCG ((((((((...((((((((+))))))))...))))))))	51.5 °C
CGACGTGCGCAATGTGCTG+CAGCACATTATGCACGTCG ((((((((..(((((((((+)))))))))..))))))))	52.6 °C
CGACGTGCGCAATGTGCTG+CAGCACATTCAGCACGTCG ((((((((..(((((((((+)))))))))..))))))))	53.1 °C
CGACGTGCGCAATGTGCTG+CAGCACATTCGGCACGTCG ((((((((..(((((((((+)))))))))..))))))))	52.5 °C
CGACGTGCGCAATGTGCTG+CAGCACATTCTGCACGTCG ((((((((..(((((((((+)))))))))..))))))))	52.3 °C
CGACGTGCGCAATGTGCTG+CAGCACATTGTGCACGTCG ((((((((.((((((((((+)))))))))).))))))))	59.9 °C
CGACGTGCGCAATGTGCTG+CAGCACATTTAGCACGTCG ((((((((..(((((((((+)))))))))..))))))))	53 °C
CGACGTGCGCCATGTGCTG+CAGCACATAAAGCACGTCG ((((((((...((((((((+))))))))...))))))))	53.6 °C
CGACGTGCGCCATGTGCTG+CAGCACATAAGGCACGTCG ((((((((...((((((((+))))))))...))))))))	48.6 °C
CGACGTGCGCCATGTGCTG+CAGCACATACCGCACGTCG (((((((((..((((((((+))))))))..)))))))))	51 °C

Substance	Tm
CGACGTGCGCCATGTGCTG+CAGCACATACGGCACGTCG ((((((((...((((((((+))))))))...))))))))	46.6 °C
CGACGTGCGCCATGTGCTG+CAGCACATAGAGCACGTCG ((((((((.(.((((((((+)))))))).).))))))))	54.4 °C
CGACGTGCGCCATGTGCTG+CAGCACATAGCGCACGTCG ((((((((((.((((((((+)))))))).))))))))))	58.9 °C
CGACGTGCGCCATGTGCTG+CAGCACATATGGCACGTCG ((((((((...((((((((+))))))))...))))))))	48.1 °C
CGACGTGCGCCATGTGCTG+CAGCACATATTGCACGTCG ((((((((...((((((((+))))))))...))))))))	47.3 °C
CGACGTGCGCCATGTGCTG+CAGCACATCAGGCACGTCG ((((((((...((((((((+))))))))...))))))))	47.8 °C
CGACGTGCGCCATGTGCTG+CAGCACATCCTGCACGTCG ((((((((...((((((((+))))))))...))))))))	47.3 °C
CGACGTGCGCCATGTGCTG+CAGCACATCGCGCACGTCG ((((((((((.((((((((+)))))))).))))))))))	58.3 °C
CGACGTGCGCCATGTGCTG+CAGCACATCGGGCACGTCG ((((((((.(.((((((((+)))))))).).))))))))	51.2 °C
CGACGTGCGCCATGTGCTG+CAGCACATCGTGCACGTCG ((((((((.(.((((((((+)))))))).).))))))))	47.7 °C
CGACGTGCGCCATGTGCTG+CAGCACATGACGCACGTCG (((((((((.(((((((((+))))))))).)))))))))	59.3 °C
CGACGTGCGCCATGTGCTG+CAGCACATGATGCACGTCG ((((((((..(((((((((+)))))))))..))))))))	54.9 °C
CGACGTGCGCCATGTGCTG+CAGCACATGGAGCACGTCG ((((((((.((((((((((+)))))))))).))))))))	62.3 °C
CGACGTGCGCCATGTGCTG+CAGCACATGGTGCACGTCG ((((((((.((((((((((+)))))))))).))))))))	62.5 °C
CGACGTGCGCCATGTGCTG+CAGCACATGTAGCACGTCG ((((((((..(((((((((+)))))))))..))))))))	55.1 °C
CGACGTGCGCCATGTGCTG+CAGCACATTAAGCACGTCG ((((((((...((((((((+))))))))...))))))))	52.1 °C
CGACGTGCGCCATGTGCTG+CAGCACATTACGCACGTCG (((((((((..((((((((+))))))))..)))))))))	52.3 °C
CGACGTGCGCCATGTGCTG+CAGCACATTCAGCACGTCG ((((((((...((((((((+))))))))...))))))))	49.8 °C
CGACGTGCGCCATGTGCTG+CAGCACATTCCGCACGTCG (((((((((..((((((((+))))))))..)))))))))	50.9 °C
CGACGTGCGCCATGTGCTG+CAGCACATTGAGCACGTCG ((((((((.(.((((((((+)))))))).).))))))))	52.6 °C
CGACGTGCGCCATGTGCTG+CAGCACATTGCGCACGTCG ((((((((((.((((((((+)))))))).))))))))))	59.3 °C
CGACGTGCGCCATGTGCTG+CAGCACATTTGGCACGTCG ((((((((...((((((((+))))))))...))))))))	47.4 °C
CGACGTGCGCGATGTGCTG+CAGCACATAAAGCACGTCG ((((((((...((((((((+))))))))...))))))))	54 °C
CGACGTGCGCGATGTGCTG+CAGCACATAACGCACGTCG (((((((((..((((((((+))))))))..)))))))))	54.4 °C
CGACGTGCGCGATGTGCTG+CAGCACATAAGGCACGTCG ((((((((...((((((((+))))))))...))))))))	50 °C
CGACGTGCGCGATGTGCTG+CAGCACATACAGCACGTCG ((((((((...((((((((+))))))))...))))))))	51.7 °C
